Biological target: full length human PSGL-1 (SEQ ID NO: 3) expressed on heparan sulfate-mutant CHO cells (human) (UniProt Q14242)
Experiment: blocking of VISTA-Fc binding to CHO-PSGL-1 cells (the blocked ligand is VISTA-Fc); cells pre-incubated with antibody and read by flow cytometry or HTRF

Chain of full length human PSGL-1 (SEQ ID NO: 3) expressed on heparan sulfate-mutant CHO cells (human) (Q14242 42-412 limits assumed, change not shown): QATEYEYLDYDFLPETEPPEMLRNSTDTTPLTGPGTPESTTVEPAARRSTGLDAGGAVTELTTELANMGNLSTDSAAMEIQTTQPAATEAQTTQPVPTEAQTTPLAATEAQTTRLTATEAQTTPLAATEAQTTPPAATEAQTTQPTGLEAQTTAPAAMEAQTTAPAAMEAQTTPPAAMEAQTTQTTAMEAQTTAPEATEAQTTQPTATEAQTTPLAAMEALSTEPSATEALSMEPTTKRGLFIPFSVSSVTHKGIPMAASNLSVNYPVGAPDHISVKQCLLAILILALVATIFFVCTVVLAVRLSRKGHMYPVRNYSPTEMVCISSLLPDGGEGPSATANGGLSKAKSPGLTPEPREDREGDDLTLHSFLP

## anti-PSGL-1 antibody KPL-1 (BD Biosciences or Biolegend)
  IC50 (read off the curve): 0.06 µg/mL
